In patent publication US20100113339A1:
pKd: −log10 of the molar value.

Legend:
[1] = target: rhesus serum albumin (rhesus) (UniProt Q28522); test: SPR Biacore 3000, albumin amine-coupled on CM5 chip, nanobody concentration series
[2] = target: human serum albumin (human) (UniProt P02768); test: as above
[3] = target: mouse serum albumin (mouse) (UniProt P07724); test: as above
[4] = target: mouse serum albumin (mouse) (UniProt P07724); test: SPR Biacore 3000; mouse albumin against human/rhesus albumin as reference

Chain of PMP6A6 (ALB1) (VHH) (VHH): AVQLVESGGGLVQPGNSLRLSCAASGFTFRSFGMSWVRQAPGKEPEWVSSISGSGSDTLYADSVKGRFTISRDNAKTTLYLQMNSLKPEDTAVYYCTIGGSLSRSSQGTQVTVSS
Chain of mouse serum albumin (mouse) (P07724 25-608 limits assumed): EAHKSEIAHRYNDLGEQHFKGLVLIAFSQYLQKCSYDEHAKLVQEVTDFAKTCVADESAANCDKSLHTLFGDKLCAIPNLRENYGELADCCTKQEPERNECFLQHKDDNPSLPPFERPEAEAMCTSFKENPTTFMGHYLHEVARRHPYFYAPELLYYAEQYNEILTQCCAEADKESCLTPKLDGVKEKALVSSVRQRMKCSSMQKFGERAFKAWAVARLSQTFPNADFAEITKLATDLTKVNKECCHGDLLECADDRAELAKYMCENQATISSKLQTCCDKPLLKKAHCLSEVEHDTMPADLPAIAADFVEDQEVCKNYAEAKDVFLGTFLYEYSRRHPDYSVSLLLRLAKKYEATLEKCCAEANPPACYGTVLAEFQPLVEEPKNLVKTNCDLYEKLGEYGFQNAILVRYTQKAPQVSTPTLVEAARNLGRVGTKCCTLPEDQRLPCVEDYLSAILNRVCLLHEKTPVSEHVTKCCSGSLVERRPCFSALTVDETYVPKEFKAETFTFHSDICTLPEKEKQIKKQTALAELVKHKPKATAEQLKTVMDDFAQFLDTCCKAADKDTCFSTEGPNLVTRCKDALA
Chain of rhesus serum albumin (rhesus) (Q28522 17-600 limits assumed): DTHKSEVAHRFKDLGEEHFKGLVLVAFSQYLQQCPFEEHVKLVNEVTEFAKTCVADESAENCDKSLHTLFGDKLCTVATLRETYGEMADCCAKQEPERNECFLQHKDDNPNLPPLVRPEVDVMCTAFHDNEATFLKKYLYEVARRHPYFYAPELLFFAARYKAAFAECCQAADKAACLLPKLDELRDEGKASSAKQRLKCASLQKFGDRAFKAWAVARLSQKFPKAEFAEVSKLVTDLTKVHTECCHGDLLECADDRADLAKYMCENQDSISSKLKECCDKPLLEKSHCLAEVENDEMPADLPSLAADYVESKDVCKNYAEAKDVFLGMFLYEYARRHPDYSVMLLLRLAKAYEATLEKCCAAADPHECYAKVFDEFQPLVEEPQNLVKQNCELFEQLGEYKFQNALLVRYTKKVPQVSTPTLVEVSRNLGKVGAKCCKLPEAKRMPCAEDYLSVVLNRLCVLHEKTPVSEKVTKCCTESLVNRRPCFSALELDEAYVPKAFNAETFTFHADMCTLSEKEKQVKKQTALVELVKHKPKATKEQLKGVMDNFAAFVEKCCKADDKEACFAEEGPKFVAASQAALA

pKd [1]: 9.28
koff [1]: 0.000546 s⁻¹
kon [1]: 1.05e+06 M⁻¹ s⁻¹
pKd [2]: 9.24
koff [2]: 0.00063 s⁻¹
kon [2]: 1.11e+06 M⁻¹ s⁻¹
pKd [3]: 8.19
koff [3]: 0.00725 s⁻¹
kon [3]: 1.11e+06 M⁻¹ s⁻¹
factor of difference in affinity for human/rhesus versus mouse serum albumin [4]: 12 fold
Substance: PMP6A6 (ALB1) (VHH)
